Assay results reported in patent publication US20160263250A1 (GENERAL HOSPITAL, published 2016).

Key:
[1] = target: Exendin-4 (UniProt P26349 48-86); assay: blocking on MIN6 cells: Exendin-4 (0-500 nM), then Exendin-4X12-VT750 (10 nM); competitor Exendin-4X12-VT750
[2] = target: Exendin-4X12-VT750; assay: cell-labeling assay, fluorescence plate reader, MIN6 cells
[3] = target: Exendin-4K12-VT680; assay: in vivo injection into NOD MIP-GFP mice; intravital imaging and fluorescence histology

Measured: binding result

B1: GLP-1R naturally expressed on mouse insulinoma-derived MIN6 cells and mouse pancreatic beta cells (receptor)
chain: GPRPQGTTVSLSETVQKWREYRRQCQRFLTEAPLLATGLFCNRTFDDYACWPDGPPGSFVNVSCPWYLPWASSVLQGHVYRFCTAEGLWLHKDNSSLPWRDLSECEESKRGERNFPEEQLLSLYIIYTVGYALSFSALVIASAILVGFRHLHCTRNYIHLNLFASFILRALSVFIKDAALKWMYSTAAQQHQWDGLLSYQDSLGCRLVFLLMQYCVAANYYWLLVEGVYLYTLLAFSVFSEQRIFKLYLSIGWGVPLLFVIPWGIVKYLYEDEGCWTRNSNMNYWLIIRLPILFAIGVNFLIFIRVICIVVSKLKANLMCKTDIKCRLAKSTLTLIPLLGTHEVIFAFVMDEHARGTLRFIKLFTELSFTSFQGLMVAILYCFVNNEVQMEFRKCWERWRLEHLNIQRDCSMKPLKCPTSSVSSGATVGSSVYAATCQSSYS
notes: whole, on cells; The species follows from the cell line and the animals; also called GLP-1R (MIN6); GLP-1 receptors in vivo (mouse)
binds: all assays above
